Assay results: US20220281973A1 (TRUEBINDING, published 2022)
Numbering of substitutions follows the chain as printed.

T1: human LRIG1 extracellular domain fused to a linker-spaced 6-histidine tag, LRIG1-ECD-His (R&D systems, … (human, UniProt Q96JA1 35-794))
T1 construct: Bought protein; also called human LRIG1-His; hLRIG1-His; not shown: linker-spaced 6-histidine tag
T1 sequence: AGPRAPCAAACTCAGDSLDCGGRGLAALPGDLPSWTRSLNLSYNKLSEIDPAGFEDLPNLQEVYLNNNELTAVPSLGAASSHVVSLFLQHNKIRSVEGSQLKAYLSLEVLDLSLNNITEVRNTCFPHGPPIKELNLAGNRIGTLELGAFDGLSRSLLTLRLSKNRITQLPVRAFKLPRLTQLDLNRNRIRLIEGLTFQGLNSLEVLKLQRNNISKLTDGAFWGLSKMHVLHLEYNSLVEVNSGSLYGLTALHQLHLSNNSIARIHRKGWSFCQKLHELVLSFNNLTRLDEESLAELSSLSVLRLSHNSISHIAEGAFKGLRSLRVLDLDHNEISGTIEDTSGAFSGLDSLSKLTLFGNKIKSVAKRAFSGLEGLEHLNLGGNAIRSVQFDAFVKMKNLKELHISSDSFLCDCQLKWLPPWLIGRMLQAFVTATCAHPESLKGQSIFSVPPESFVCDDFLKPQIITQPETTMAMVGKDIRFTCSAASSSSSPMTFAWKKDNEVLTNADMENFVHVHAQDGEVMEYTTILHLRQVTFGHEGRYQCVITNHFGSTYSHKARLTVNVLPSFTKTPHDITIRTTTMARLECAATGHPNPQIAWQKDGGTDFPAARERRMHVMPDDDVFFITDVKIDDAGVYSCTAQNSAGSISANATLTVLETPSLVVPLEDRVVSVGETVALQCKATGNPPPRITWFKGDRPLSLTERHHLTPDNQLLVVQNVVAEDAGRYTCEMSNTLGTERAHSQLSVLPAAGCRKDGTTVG

T2: hLRIG1 Peptide 71 (human)
T2 construct: 20 amino acid peptide of the LRIG1 peptide library
T2 peptide: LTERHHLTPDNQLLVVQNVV

T3: hLRIG1 Peptide 70 (human)
T3 construct: 20 amino acid peptide of the LRIG1 peptide library
T3 peptide: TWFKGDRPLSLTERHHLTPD

B1: 802.2F4.2C7 (antibody, V domains shown)
VH: EVQLQQSGTVLARPGASVKMSCKASGYNFINSWMHWVKQRPGQGLEWIGAFYPGNSDTRYNQKFMGKAKLTAVTSASTAYMEVSSLTNEDSAVYYCTELGGDYWGQGTTLTVSS
VL: DVVMTQTPLSLPVSLGDQASISCRSSQSLVHNDGNTYLHWFLQKPGQSPKLLIHKVSNRFSGVPDRFSGSGSGTDFTLKISRVEAEDLGVYFCSQSTHVPYTFGGGTKLEIK
notes: Mouse hybridoma monoclonal
B2: 802.3E6.2F9 (antibody, V domains shown)
VH: QVQLQQSGAELMKPGASVKISCKVTGHTFSSYWIEWVKQRPGHGLEWIGEILPGKGNTEYNEKFKGKATFTADTSSNTAYMQLSSLTSEDSAVYYCARNFDVWGAGTTVTVSS
VL: B1 VL with N32R, D33N, N35H, F41Y, H54Y, G71V, A85G, L88V
notes: Mouse hybridoma monoclonal
B3: 802.3E6.2H9 (antibody, V domains shown)
VH: QVQKQQPGAELVMPGASVKLSCKASGYTFTSYWMHWVMQRPGQGLEWIGDIDPSDSYTNYNQQFKGKATLTVDISSSSAYMQLSSLTFEDSAVYYCARARVDFDYWGRGTTLTVSS
VL: EIVLTQSPALLAASPGDKVTITCSVSSSISSSTLHWYQQKSGTSPKPWIYGTSNLASGVPVRFSGSGSGTSYSLTISSMEAEDAATYYCQQWSGYPLTFGAGTKLELK
notes: Mouse hybridoma monoclonal
B4: 802.4C12.3C5 (antibody, V domains shown)
VH: QVQLQQSGGELMKPGASVKLSCKATGYTFTGYWIEWVKQRPGHGLEWIGEILPGSGRTYYNEKFKGKATFTADTSSNTAYMQLSSLTTEDSAIYYCAREIYDGHYEAWYAYWGQGTLVTVSA
VL: DVVMTQTPLSLSVTIGQPASISCKSSQSLLYSDGKTYLNWLQQRPGQSPKRLMYQVSKLDPGIPDRFSGSGSETDFTLEISRVEAEDLGVYYCLQGTYYPHTFGSGTKLEIK
notes: Mouse hybridoma monoclonal
B5: 802.2F11.2B6 (antibody, V domains shown)
VH: QVQLQQSGAELMKPGASVKLSCKATGYTFTGYWIEWVKQRPGHGLEWIGEILPGSGSTHYNEKFKGKATFTADTSSNTAYIQLSSLTTEDSAIYYCEREVYDNDEGAWFANWGQGTLVTVSA
VL: B4 VL with E79K
notes: Mouse hybridoma monoclonal
B6: 802.1H3.2A4 (antibody, V domains shown)
VH: QVQLQQPGDELVKPGASVKLSCKASGYTFTSFWIHWVKQRPGQGLEWIGNIYPGSSSANYNEKFKSKATLTVDTSSSTAYMQLSSLTSDDSAVYYCARSSYRYSYYSWGQGTTLTVSS
VL: DVVMTQTPLSLPVSLGDQASISCRSSQSIVHSNGNTFLEWYLQKPGQSPNLLIYKVSNRFSGVPDRFSGSGSGTDFTLKISRVEAEDLGVYYCFQGSHVPLSFGAGTKLELK
notes: Mouse hybridoma monoclonal
B7: 802.2B7.2F9 (antibody, V domains shown)
VH: EVQLVESGGGLAKPGGSLKLSCAASGFTFSASAMSWVRQTPEKRLEWVATISDGGSYTYYPDNVKGRFTISRDNAKSNLYLQMSHLKSEDTAMYYCAGGVSTVINFDYWGQGTTLTVSS
VL: B6 VL with A19V, F37Y, N50K, S102T, A105G
notes: Mouse hybridoma monoclonal
B8: 802.4H12.2A9 (antibody, V domains shown)
VH: EVQLVESGGGLVKPGGSLKLSCAASGFTFSSYTMSWVRQTPEKTLEWVATISDGGRYTYYPDNVKGRFTISRDNANNNLYLQMSHLKSEDTAMYYCARGWLLRNFDFWGQGTTLTVSS
VL: B6 VL with F37Y, N50K, S102T
notes: Mouse hybridoma monoclonal
B9: 802.3D5.2G4 (antibody, V domains shown)
VH: EVKLEESGGGLVQPGGSMTLSCVASGFTFSNYWVNWVRQSPEKGLEWVAQIRLKSENYPTHYAESVKGRFTVSRDDSKSSVYLQMNNLRAEDTGIYYCTGRGYSNYAWGQGTTLTVSS
VL: B6 VL with V2I, F37Y, N50K, V99F, L101W, S102T, A105G, L111I
notes: Mouse hybridoma monoclonal
B10: 802.4B6.2E11 (antibody, V domains shown)
VH: B6 VH with G8D, D9T, K23R, F32Y, H35N, S55T, A58T, T74P, A97S, S104T
VL: B6 VL with H31Q, N35I, F37Y, Q43K, F60L, E86D, S102T
notes: Mouse hybridoma monoclonal
B11: 802.2B7.2D9 (antibody, V domains shown)
VH: QVQLKQSGPGLVQPSQSLSITCTVSGFSLTSYGVHWVRQSPGKGLEYLGVIWSGGSTDYNAAFISRLSISKDNSKSQVFFKMNSLRADDTAIYYCARNWAYYSNHYYVMDYWGQGTSVTVSS
VL: DIQMTQSPASLYAFVGETVTITCRASENIYSYLAWYHQKQGKSPQLLVYNSNSLAEGVPLRFSGSGSGTQFSLKINSLQPEDFGNYYCQHHYVTPLTFGGGTKLEMK
notes: Mouse hybridoma monoclonal
B12: 802.4B6.2F6 (antibody, V domains shown)
VH: QVQLQQSGPELVKPGASVKLSCKASGYTFTSYDINWVKQRPGQGLEWIGWIYPRDGTTKYNEKFKGKATLTVDTSSSTAYMEIHSLTSEDSAVYFCAREDYGSSFHNWGQGTTLTVSS
VL: NIVMTQSPKSMSMSVGERVTLSCKASEDVDTYVSWYQQKPNQSPKLLIYGASNRYTGVPDRFTGSGSATDFTLTISSVQAEDLADYYCGQSYSYPWTFGGGTKLEIK
notes: Mouse hybridoma monoclonal
B13: 802.3B10.2C10 (antibody, V domains shown)
VH: DVQLQESGPGLVKPSLSLSLTCTVTGYSITSGYDWHWIRHFPGNILEWMGYISYSGYTNYNPSLKSRISITHDTSKNHFFLKLNSVTTEDTATYYCARDSNWYFDVWGAGTTVTVSS
VL: B12 VL with S14L, T20I, S22N, D28N, N41E, A80G, Y92H, S93N, W96Y, G100S
notes: Mouse hybridoma monoclonal

The binders below were run against T1, human LRIG1 extracellular domain fused … (assay: LRIG1 ECD ELISA-positive hybridoma antibodies tested in blocking ELISA on plate-bound LRIG1-ECD-His).
Protocol: Positively scoring wells were evaluated for the ability to block association of LRIG1 and VISTA. To identify LRIG1-targeted antibodies with the ability to block the interaction of LRIG1 and VISTA, purified LRIG1 and VISTA proteins were incubated in the presence of LRIG1-immunization hybridoma supernatants described above, or without antibody, and protein interaction was evaluated by ELISA. Purified human LRIG1 extracellular domain fused to a HIS tag (R&D Systems) was diluted in phosphate buffered saline (PBS) (Corning) to a concentration of 3 μg/ml and 100 μl was added to each well of a 96-well ELISA plate (Thermo Fisher, 44-2404-21). After incubating the plate at 4° C. overnight, the plate was washed three times with 300 μl of PBS with 0.05% TWEEN (VWR) (PBST) per well. The plate was then blocked for an hour with 200 μl of 2% bovine serum albumin (BSA) (Sigma) in PBST per well at room temperature with gentle rocking. Thereafter, the 2% BSA in PBST was removed and 50 μl of hybridoma supernatant diluted to 3.3 ug/mL was added to the wells. The plate was incubated for 10 minutes at room temperature with gentle rocking. Afterwards, 100 ul of 50 nM oligomerized VISTA in 100 ul PBS buffer was added per well. VISTA oligomerization was performed by Klickmer formation. Briefly, 5 nM Klickmer (Immudex) was incubated with 200 nM hVISTA-Fc-Avi-Biotin in PBS and incubated for one hour. The plate was incubated for an hour at room temperature with gentle rocking. Thereafter, the plate was washed three times with 300 μl of PBST per well, and 100 μl of avidin-HRP (1:1000) (Jackson ImmunoResearch) was then added to each well and the plate was incubated at room temperature for 30 minutes with gentle rocking. Thereafter, the plate was washed three times with 300 μl of PBST per well. 100 μl of TMB substrate (Fisher Scientific, 34029) was then added to each well. The reaction was stopped with 50 μl of 1 M HCl (VWR) per well. The plate was read using a spectrophotometer (Molecular Devices) at absorbance of 450 nm. Percent blockade of LRIG1-VISTA interaction was calculated as the fraction of signal obtained in each experimental samples of the no antibody sample less background signal.

Binding result, binds:
B1
B2
B3
B4
B5
B6
B7
B8
B9
B10
B11
B12
B13

Biological target: T2, hLRIG1 Peptide 71
Experiment: peptide ELISA of Example 2, as told in Example 3
Protocol: (§1) To identify the epitopes to which LRIG1 antibodies with and without VISTA-LRIG1 blocking activity bound, a library of 20 amino acid peptides representing portions of LRIG1 was produced, and the ability to bind LRIG1 antibodies was evaluated by ELISA. At least 2 ug/ml of hLRIG1 peptide in 50 μl of PBS or 0.1 ug/ml of full-length human LRIG1 protein (R&D Systems) in 100 μl of PBS was added to the wells of a 96-well ELISA plate (Thermo Fisher, 44-2404-21). After incubating the plate at 4° C. overnight, the plate was washed three times with 300 μl of PBST per well. The plate was then blocked for an hour with 200 μl of 2% BSA in PBST per well at room temperature with gentle rocking. Thereafter, the 2% BSA in PBST was removed and 100 μl of 0.1 ug/ml of antibody in 2% BSA in PBST was added to the wells. The plate was incubated for an hour at room temperature with gentle rocking and then washed three times with 300 μl of PBST per well. Afterwards, 100 μl of anti-mouse IgG-HRP (1:4000) (Jackson ImmunoResearch) or anti-rat IgG HRP (1:4000) (Jackson ImmunoResearch) was added to the wells. The plate was incubated for 30 minutes at room temperature with gentle rocking and then washed three times with 300 μl of PBST per well. 100 μl of TMB substrate (Fisher Scientific, 34029) was then added to each well. The reaction was stopped with 50 μl of 1 M HCl (VWR) per well. The plate was read using a plate reader (Molecular Devices) at absorbance of 450 nm, and signal greater than 0.25 OD was considered evidence of peptide binding.

Binding result, binds:
B7
B8

Biological target: T3, hLRIG1 Peptide 70
Experiment: peptide ELISA of Example 2, as told in Example 3
Protocol: as §1

Binding result, binds:
B7
B8
